The values that follow come from patent US20070258992A1.

This experiment deals with mouse synaptosomes. Description: inhibition of active BoNT/A binding to synaptosomes.

In turn, “inactive BoNT/A (formaldehyde-inactivated toxoid) (from UniProt P0DPI0 2-1296)” displayed a maximum inhibition of 98%.
